From patent publication US20130115220A1, “METHOD FOR PREVENTION OR TREATMENT OF METABOLIC SYNDROME” (DAINIPPON SUMITOMO PHARMA CO., LTD., priority 2010, published 2013) come the findings set out here.

In one data set the test system is 3T3-L1 adipocytes. The data set is described as follows: Glycerol and free fatty acid released in culture supernatant. Format: cell-based, mouse. As to conditions: rAIM 5 μg/ml, day 2, day 4, day 6. As to the method: rAIM was loaded (5 μg/ml) on 3T3-L1 adipocytes, the amount of glycerol or free fatty acid released in the culture supernatant was measured on day 2, day 4, and day 6. After rAIM loading, the cells were washed twice with PBS, and incubated in a serum-free medium (FreeStyle™ 293 Expression Medium; Invitrogen) for 5 hr. The buffer was recovered, and the measurement was performed using a glycerol assay kit and a fatty acid assay kit (both Bio Vision Inc.) and according to the manual.

The test system of the next data set is 3T3-L1 cells. The data set is described as follows: Expression of adipocyte markers by quantitative real-time PCR. As to conditions: day 12. Type of data set: cell-based, mouse. The method, then: The cells cultured in schedules A-D shown in FIG. 13 were recovered on day 10 from the start of the differentiation induction stimulation (day 12), and expression of adipocyte markers (C/EBPα, PPARγ1, PPARγ2, CD36, Glut4) at mRNA level was measured using 7500 Fast Real-Time PCR system (Invitrogen; CA, USA) by ΔΔCT method.
Background: Quantitative PCR measures a nucleic acid by following its amplification.

The subject of the next data set is AIM knockout mice. The data set is described as follows: Macrophage infiltration into adipose tissue after systemic rAIM administration. Format: in vivo, mouse. As to conditions: intravenous injection 50 μg/body/injection, 3 weeks. The method, then: Then, rAIM was systemically administered to the AIM knockout mice by intravenous injection (50 μg/body/injection). After the administration was continued for 3 weeks, a section produced from the visceral fat tissue was stained with an anti-macrophage monoclonal antibody (F4/80).

A further data set concerns AIM-/- mice. The data set is described as follows: mRNA level of markers in visceral fat tissue by QPCR. Format: in vivo, mouse. As to conditions: rAIM administration group relative to BSA group, standardized with GAPDH. The method, then:
The mRNA level of adipocyte marker, preadipocyte marker, and lipid droplet formation-related genes in the RNA extracted from visceral fat tissue of the mice of the rAIM administration group and BSA administration group was measured by QPCR. The measurement values were standardized with the measurement values of GAPDH, and shown by an expression level relative to that of the adipose tissue administered with BSA.

Data set [1] concerns the target T1, FAS (Mus musculus, UniProt P19096). The data set is described as follows: Co-immunoprecipitation of rAIM-HA and endogenous FAS in adipose tissue. Type of data set: binding. Set-up: endogenous. To be noted: adipose tissue of AIM-/- mice, 100 μg injected, 3 hr. As to the method:
rAIM labeled with HA-tag was directly injected to adipose tissue of AIM^−/− mice (at several points, 100 μg in total). After 3 hr, to confirm binding of rAIM-HA and endogenous FAS, co-immunoprecipitation by anti-HA antibody was performed using adipose tissue. The presence of FAS in the precipitate was analyzed by Western blotting (WB).

For data set [2], the target named is T1, FAS. The data set is described as follows: Co-immunoprecipitation of AIM-HA and FLAG-FAS or FAS domains in HEK 293T cells. Type of data set: binding. On the set-up: expressed in transfected cells; host or cells: HEK 293T cells co-expressing AIM-HA. As to conditions: HEK 293T cells co-expressing HA-tag rAIM and FLAG-tag FAS. The text has this: In HEK 293T cells, rAIM labeled with HA-tag and FAS labeled with FLAG-tag were co-expressed, and the binding of AIM and FAS was confirmed by co-immunoprecipitation using an anti-Flag antibody or anti-HA antibody.
Then, the AIM binding region in FAS was examined. FAS contains 8 domains of keto acyl synthase (KS), malonyl/acetyl transferase (MAT), dehydrase (DH), central core (CC), enoylreductase (ER), keto reductase (KR), acylcarrier protein (ACP) and thioesterase (TE).
The N-terminal of each domain of FAS was labeled with Flag sequence, and expressed in HEK293T cells where AIM-HA is stably expressed. The binding of AIM-HA and each domain of FAS was confirmed by co-immunoprecipitation using an anti-Flag antibody or anti-HA antibody.
The sequence encoding full-length FAS cDNA (nucleotide: +1-7515) labeled with FLAG-tag was constructed using a part of the cDNA clone provided by Dr. Ohara (Kazusa DNA Research Institute) and some fragments cloned by RT-PCR and pFLAG-CMV2 vector (Sigma).
A cDNA fragment encoding KS, MAT, DH, CC, ER, KR, ACP or TE was prepared by subcloning to pFLAG-CMV2 vector by using full-length FAS cDNA as a template.

In a further data set the test system is CD36-/- mice. The data set is described as follows: rAIM uptake into adipose tissue of CD36+/+ and CD36-/- mice. Format: in vivo. To be noted: rAIM intravenous 300 μg/mouse, 16 hr. The method, then: Then, CD36^+/+ mice (wild-type) and CD36^−/− mice (Febbraio et al., J. Biol. Chem., 1999, 274:19055-19062) were intravenously injected with rAIM (300 μg/mouse in PBS), sacrificed 16 hr later, and a section was prepared from adipose tissue. AIM and macrophage F4/80 in the section were stained.

A further data set has as its system 3T3-L1 preadipocytes. The data set is described as follows: Differentiation of 3T3-L1 preadipocytes into mature adipocytes, lipid droplet formation by oil-red-O. Format: cell-based. As to the method: To examine the function of AIM produced by macrophage that infiltrated into adipose tissue on the surrounding adipocytes, an experiment was performed to load AIM in the culture process for differentiation of 3T3-L1 preadipocytes into mature adipocytes.
As AIM, recombinant AIM protein (rAIM) of mouse was used. rAIM was prepared by culturing human-derived HEK293T cells transfected with a vector expressing mouse AIM (pCAGGS-mAIM-HA plasmid) in a serum-free medium (FreeStyle™ 293 Expression Medium; Invitrogen). rAIM was purified from the culture supernatant thereof using an anti-HA antibody column. In other Reference Examples shown below, AIM used was a similar rAIM protein. AIM was loaded by adding AIM to a culture medium at a concentration of 5 μg/ml.
In addition, differentiation of 3T3-L1 cells was induced as shown in FIG. 13 by first proliferating 3T3-L1 cells by cultivating for 4 days (day(−2)-day 2), after which cultivating in a culture medium containing insulin, dexamethasone (DEX) and isobutylmethylxanthine (IBMX) for 2 days (day 2-day 4) to start differentiation induction stimulation, and further cultivating in a culture medium containing insulin for 2 days (day 4-day 6).
After the differentiation induction stimulation period (day 2-day 6), the cells were continuously cultured in a culture medium free of such differentiation induction stimulation factors. Then, the cells on day 10 day from the start of the differentiation induction stimulation (day 12) were stained with oil-red-O, and the state of differentiation of 3T3-L1 cells into mature adipocytes was observed.

T1 sequence (P19096 whole entry): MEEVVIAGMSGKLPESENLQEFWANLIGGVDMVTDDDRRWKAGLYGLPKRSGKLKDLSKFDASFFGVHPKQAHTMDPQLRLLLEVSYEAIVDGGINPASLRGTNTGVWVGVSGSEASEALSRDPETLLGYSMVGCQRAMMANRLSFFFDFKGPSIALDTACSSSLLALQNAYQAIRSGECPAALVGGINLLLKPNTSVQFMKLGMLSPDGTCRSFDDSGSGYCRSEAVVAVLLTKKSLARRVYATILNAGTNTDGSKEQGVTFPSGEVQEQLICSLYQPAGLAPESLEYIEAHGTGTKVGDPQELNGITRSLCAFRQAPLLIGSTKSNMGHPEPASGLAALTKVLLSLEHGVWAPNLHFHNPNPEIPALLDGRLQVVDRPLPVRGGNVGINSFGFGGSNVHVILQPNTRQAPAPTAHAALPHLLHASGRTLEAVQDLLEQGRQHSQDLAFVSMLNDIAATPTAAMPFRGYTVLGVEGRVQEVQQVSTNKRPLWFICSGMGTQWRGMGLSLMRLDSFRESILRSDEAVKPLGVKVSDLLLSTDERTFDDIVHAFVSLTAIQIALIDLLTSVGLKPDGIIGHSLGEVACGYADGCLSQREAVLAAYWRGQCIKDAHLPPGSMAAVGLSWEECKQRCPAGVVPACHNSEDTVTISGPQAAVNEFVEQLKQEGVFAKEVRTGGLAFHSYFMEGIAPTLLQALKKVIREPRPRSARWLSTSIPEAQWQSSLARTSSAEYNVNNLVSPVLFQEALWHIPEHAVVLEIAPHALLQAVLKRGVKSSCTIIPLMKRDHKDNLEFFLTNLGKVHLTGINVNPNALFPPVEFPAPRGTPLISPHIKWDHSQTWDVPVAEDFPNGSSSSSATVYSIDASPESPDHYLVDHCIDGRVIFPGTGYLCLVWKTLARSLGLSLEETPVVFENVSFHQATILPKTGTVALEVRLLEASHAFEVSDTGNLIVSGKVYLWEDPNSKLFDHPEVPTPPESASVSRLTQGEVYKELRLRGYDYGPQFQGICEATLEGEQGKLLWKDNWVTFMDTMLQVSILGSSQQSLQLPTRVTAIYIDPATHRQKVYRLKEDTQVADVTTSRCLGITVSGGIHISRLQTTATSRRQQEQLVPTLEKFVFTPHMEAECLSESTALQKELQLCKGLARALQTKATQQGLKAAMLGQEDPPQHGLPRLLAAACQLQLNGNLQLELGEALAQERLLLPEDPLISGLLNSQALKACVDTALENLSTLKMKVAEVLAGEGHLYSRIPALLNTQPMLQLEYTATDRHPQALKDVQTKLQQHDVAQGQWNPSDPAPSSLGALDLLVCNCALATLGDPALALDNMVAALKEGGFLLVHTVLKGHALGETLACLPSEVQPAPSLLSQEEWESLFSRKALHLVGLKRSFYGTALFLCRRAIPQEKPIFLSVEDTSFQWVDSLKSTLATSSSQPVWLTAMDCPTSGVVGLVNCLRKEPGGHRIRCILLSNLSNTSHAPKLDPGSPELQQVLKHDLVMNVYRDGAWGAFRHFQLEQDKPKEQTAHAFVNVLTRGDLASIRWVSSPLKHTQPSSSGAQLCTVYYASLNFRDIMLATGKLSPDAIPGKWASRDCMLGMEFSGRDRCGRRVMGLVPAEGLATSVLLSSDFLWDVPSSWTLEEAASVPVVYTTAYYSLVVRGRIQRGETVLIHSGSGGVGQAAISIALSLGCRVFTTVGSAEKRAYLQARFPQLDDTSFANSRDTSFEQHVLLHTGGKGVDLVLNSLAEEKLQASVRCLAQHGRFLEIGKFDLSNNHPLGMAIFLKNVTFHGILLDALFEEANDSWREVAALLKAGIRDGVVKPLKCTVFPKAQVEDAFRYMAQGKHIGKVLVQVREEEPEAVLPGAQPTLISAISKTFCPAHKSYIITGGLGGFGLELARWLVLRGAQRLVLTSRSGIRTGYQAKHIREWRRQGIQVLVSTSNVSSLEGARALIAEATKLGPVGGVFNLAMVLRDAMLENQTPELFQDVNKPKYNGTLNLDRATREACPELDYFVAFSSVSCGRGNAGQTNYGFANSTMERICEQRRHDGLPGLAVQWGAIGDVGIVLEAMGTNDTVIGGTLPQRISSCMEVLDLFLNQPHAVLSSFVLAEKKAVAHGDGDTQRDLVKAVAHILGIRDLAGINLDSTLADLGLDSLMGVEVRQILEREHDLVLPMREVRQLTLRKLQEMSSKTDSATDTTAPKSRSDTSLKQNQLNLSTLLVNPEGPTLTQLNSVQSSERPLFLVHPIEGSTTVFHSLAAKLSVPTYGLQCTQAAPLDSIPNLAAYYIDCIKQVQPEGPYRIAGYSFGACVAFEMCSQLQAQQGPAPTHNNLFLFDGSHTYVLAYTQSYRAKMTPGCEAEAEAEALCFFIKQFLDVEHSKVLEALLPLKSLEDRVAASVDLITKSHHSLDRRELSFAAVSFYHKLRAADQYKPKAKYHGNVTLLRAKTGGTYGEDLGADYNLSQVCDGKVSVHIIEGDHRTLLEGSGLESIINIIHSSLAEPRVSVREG

B1: rAIM: recombinant AIM protein (rAIM) of mouse, HA-tagged, prepared in HEK293T cells (protein)
chain: ESPTKVQLVGGAHRCEGRVEVEHNGQWGTVCDDGWDRRDVAVVCRELNCGAVIQTPRGASYQPPASEQRVLIQGVDCNGTEDTLAQCELNYYVFDCSHEEDAGAQCENPDSDLLFIPEDVRLVDGPGHCQGRVEVLHQSQWSTVCKAGWNLQVSKVVCRQLGCGRALLTYGSCNKNTQGKGPIWMGKMSCSGQEANLRSCLLSRLENNCTHGEDTWMECEDPFELKLVGGDTPCSGRLEVLHKGSWGSVCDDNWGEKEDQVVCKQLGCGKSLHPSPKTRKIYGPGAGRIWLDDVNCSGKEQSLEFCRHRLWGYHDCTHKEDVEVICTDFDV
modifications: left off: small tags and cut ends
notes: recombinant AIM protein (rAIM) of mouse, HA-tagged, prepared in HEK293T cells
As to B1, in the data set with 3T3-L1 adipocytes, the “amount of free fatty acids in the culture supernatant” value was “significantly increased” and the “amount of glycerol in the culture supernatant” value is “significantly increased”. Also, in the data set with 3T3-L1 cells (schedule B), the “expression of adipocyte markers (C/EBPα, PPARγ1, PPARγ2, CD36, Glut4) mRNA” value (“expression of adipocyte markers” for short) is recorded as “suppressed”. Further, the “expression of adipocyte markers” value in the data set with 3T3-L1 cells (schedule D as printed, AIM administered simultaneously with differentiation induction stimulation) is listed as “suppressed”. In addition, the “expression of adipocyte markers” value in the data set with 3T3-L1 cells (schedule D, AIM only before differentiation induction) is “expressed”. Further, the “infiltration of macrophages into adipose tissue (F4/80 staining of visceral fat section)” value with AIM knockout mice was “infiltration of macrophages into adipose tissue”. In addition, in the data set with AIM-/- mice, the “mRNA level of Adipophilin in visceral fat” value is “low”, the “mRNA level of FSP27 in visceral fat” value is given as “low”, the “mRNA level of PREF-1 in visceral fat” value is on record as “increased” and the “mRNA level of Perilipin in visceral fat” value is on record as “low”. In the data set on AIM-/- mice, the “mRNA of C/EBPα in visceral fat” value is on record as “did not show difference”, the “mRNA of GLUT4 in visceral fat” value is “did not show difference” and the “mRNA of PPARγ2 in visceral fat” value is recorded as “did not show difference”. Further, the “binding of rAIM-HA and endogenous FAS (co-immunoprecipitation, Western blotting)” value with FAS [1] was “coprecipitated”. For the same molecule, in the data set with FAS [2], the “binding of AIM and FAS (co-immunoprecipitation)” value is reported as “coprecipitated”. The “AIM signal in adipocyte” value with CD36-/- mice is “markedly decreased”. Besides, in the data set on 3T3-L1 preadipocytes (AIM concentration decreased to 1 μg/ml and 0.1 μg/ml), the differentiation suppressive effect entry is “decreased”. The “differentiation of 3T3-L1 cells into adipocytes” value in the data set on 3T3-L1 preadipocytes (AIM continuously loaded day(-2)-day 12) was “completely suppressed”. In addition, the “number of dead cells” value with 3T3-L1 preadipocytes (AIM loading on 3T3-L1 cells) is “did not increase”. In addition, the “differentiation of 3T3-L1 cells (cells having lipid droplet, oil-red-O, day 12)” value in the data set with 3T3-L1 preadipocytes (schedule B, AIM 5 μg/ml loaded day 2-day 12) is given as “nearly completely suppressed”. Also, in the data set on 3T3-L1 preadipocytes (schedule C, AIM 5 μg/ml loaded only day 2-day 4), the “differentiation of 3T3-L1 cells (cells having lipid droplet, oil-red-O, day 12)” value is “nearly completely suppressed”. Further, the “differentiation of 3T3-L1 cells into mature adipocytes” value in the data set on 3T3-L1 preadipocytes (schedule D, AIM loaded only before differentiation induction, day(-2)-day 2) is given as “not suppressed”.
